Tests used:
[1] = biological target: β2 adrenergic receptor 148C-378C (min-C-β2AR with N148C and native C378) (human) (UniProt P07550); test: FRET or BRET; single-molecule FRET (TIRF), receptor immobilised by FLAG/M1 Fab; titration of Gs^GDP with 100 μM isoproterenol and 20 μM cmpd-6 (positive allosteric modulator); 25 °C
[2] = biological target: β2 adrenergic receptor 148C-378C (min-C-β2AR with N148C and native C378) (human) (UniProt P07550); test: FRET or BRET; single-molecule FRET (TIRF), receptor immobilised by FLAG/M1 Fab; titration of Gs^GDP with 100 μM isoproterenol and 20 μM cmpd-15 (negative allosteric modulator); 25 °C
[3] = biological target: β2 adrenergic receptor 148C-378C (min-C-β2AR with N148C and native C378) (human) (UniProt P07550); test: FRET or BRET; single-molecule FRET (TIRF) between labels at 148C and 378C of the receptor; receptor immobilised by N-terminal FLAG on biotinylated M1 Fab; Gs^GDP 3.16 nM to 10 μM in solution; 200 μM isoproterenol; 25 °C; 50 mM HEPES pH 7.5, 100 mM NaCl, 5 mM MgCl2, 5 mM CaCl2, 0.01% MNG, 0.001% CHS; apparent EC50 of low-FRET occupancy

EC50 [1]: 0.026 µM
EC50 [2]: 0.35 µM
EC50 [3]: 0.1 µM
high-FRET dwell time, plateau at high Gs concentration [3]: 2 s
Substance: Gs heterotrimer (human Gαs, rat Gβ1, bovine Gγ2) (from UniProt P63092 1-394; P54311 1-340; P63212 1-71) (complex)

From article PMC10085991
